Assay results published in patent US20240277804A1, “TRIPLE COMBINATION THERAPY” (Immutep S.A.S., priority 2021, published 2024).

Tests used:
[1] = Pharmacokinetics of IMP321 after s.c. injection in cancer patients; type: in vivo, human; conditions: for at least 24 hours after s.c. injection; patients injected with IMP321 doses of more than 6 mg
Method: (§1) Doses of 6-30 mg per subcutaneous (s.c.) injection of IMP321 have been shown, thus far, to be safe and provide an acceptable systemic exposure based on the results of pharmacokinetics data obtained in cancer patients.

[2] = Safety of s.c. IMP321 in cancer patients; type: in vivo, human
Method: as §1

B1: IMP321: recombinant soluble human LAG-3Ig fusion protein, 160-kDa dimer: extracellular domain of hLAG-3 fused to human IgG1 Fc; APC activator (protein)
chain: LQPGAEVPVVWAQEGAPAQLPCSPTIPLQDLSLLRRAGVTWQHQPDSGPPAAAPGHPLAPGPHPAAPSSWGPRPRRYTVLSVGPGGLRSGRLPLQPRVQLDERGRQRGDFSLWLRPARRADAGEYRAAVHLRDRALSCRLRLRLGQASMTASPPGSLRASDWVILNCSFSRPDRPASVHWFRNRGQGRVPVRESPHHHLAESFLFLPQVSPMDSGPWGCILTYRDGFNVSIMYNLTVLGLEPPTPLTVYAGAGSRVGLPCRLPAGVGTRSFLTAKWTPPGGGPDLLVTGDNGDFTLRLEDVSQAQAGTYTCHIHLQEQQLNATVTLAIITVTPKSFGSPGSLGKLLCEVTPVSGQERFVWSSLDTPSQRSFSGPWLEAQEAQLLSQPWQCQLYQGERLLGAAVYFTELSSPG
modifications: left off: small tags and cut ends; a dimerising Fc or GST
In the case of B1, the “blood concentration of IMP321” value [1] is reported as over 1 ng/mL, the “safety / acceptable systemic exposure” value ([2]; doses of 6-30 mg per s.c. injection) is reported as “safe” and the dose limiting toxicity ([2]; to date) is reported as “No dose limiting toxicity has been observed”.
